Measured values taken from US10323078B2, “Isolated peptides and fragments thereof from fibrinogen for use as drugs, particularly in skin inflammatory diseases” (Universite Paris Descartes, priority 2015, dated 2019).

Columns and labels:
[1] = tested on: NHDK cells; assay: H2O2 production by P. acnes-stimulated NHDK; type: cell-based, human; details: 0.87 to 7 μM
Procedure: For experiences of stimulation with P. acnes, cells were incubated with the P. acnes suspension adjusted at the appropriate concentration, pre-treated for 1 h at 37° C. or not with fibrinogen recombinant peptides Fg1 and Fg2 at the concentrations 0.87, 1.75, 3.5 or 7 μM for the desired period of time at 37° C. in 5% CO2.
All cells lines (5·10^4 to 10^5 cells/well) were seeded in 96-well plates (Corning Costar, Brumath, France) and treated as previously described. After stimulation, cells were washed three times in PBS and incubated with 100 μl per wells of 5 μM DHE (for determination of O2^●−) or 5 μM H2-DCFDA (for determination of H2O2) for 30 min as described previously and fluorescence intensity was recorded every hour over a period of 5 h. Fluorescence excitation/emission maxima were for DHE: 480/610 nm and for H2-DCFDA: 507/525 nm. At the end of the experiment, the number of adherent cells was evaluated by the crystal violet assay as described below. O2^●−, and H2O2 were assayed by spectrofluorimetry on a Fusion spectrofluorimeter (PackardBell, Paris, France). Levels of ROS were calculated in each sample as follows: reactive oxygen species rate (arbitrary units/min/10^6 cells)=(fluorescence intensity [arbitrary units] at T5h—fluorescence intensity [arbitrary units] at To/300 minutes/number of adherent cells as measured by the crystal violet assay, and were expressed as arbitrary unit (A.U.).
To assess the efficacy of Fg1 recombinant peptide, the production of O2^∘− and H2O2 by HaCaT cells NHDK, THP-1, MRC5 and HDF stimulated by pretreated P. acnes strains 6919, RON and PIE was measured. The amount of ROS produced was compared to that produced by the stimulated cells with untreated bacteria. Production baseline was obtained by measuring ROS on unstimulated cells. The production of IL-1ß, IL-8, IL-12 and TNF-α was also measured in all conditions cited above. The measurement of the production of ROS is performed by spectrofluorimetry in the presence of specific fluorochromes directly on the monolayer cell. Measurement of cytokine production was performed in parallel on the cell culture supernatant.
Two sets of experiments were implemented: 1) The cells were stimulated (18 h at 37° C.) by P. acnes strains previously pretreated with Fg1 and Fg2 peptides at the final concentrations ranging from 0.87 to 7 μM for 1 h at 37° C.; and 2) The cells were pretreated first with Fg1 and Fg2 peptides at the final concentrations ranging from 0.87 to 7 μM for 24 h at 37° C. and stimulated (18 h at 37° C.) by P. acnes strains.
To assess the efficacy of the small Fg1-related peptide, the production of H2O2 by several cell lines (HaCaT, NHDK, THP-1, MRC5 and HDF) stimulated by three P. acnes strains 6919, RON and PIE was measured, in presence or not with the small peptides. The amount of H2O2 produced is compared to that produced by the stimulated cells with untreated bacteria. Production baseline is obtained by measuring H2O2 on unstimulated cells. The measurement of the production of H2O2 is performed by spectrofluorimetry in the presence of specific fluorochromes directly on the monolayer cell.
Two sets of experiments have been implemented: • I) The cells are stimulated (18 h at 37° C.) by P. acnes strains previously pretreated with Fg1.1, Fg1.2, Fg1.3, Fg1.4, and Fg1.5 small peptides at the final concentrations ranging from 2.5 to 20 μM for 1 h at 37° C.; • II) The cells are pretreated first with the five small peptides at the final concentrations ranging from 2.5 to 20 μM for 24 h at 37° C. and stimulated (18 h at 37° C.) by P. acnes strains.

[2] = tested on: MRC5 cells; assay: H2O2 production by P. acnes-stimulated MRC5; type: cell-based, human; details: bacteria first pretreated, 0.87 to 7 μM

Measured: Inhibition of Hydrogen peroxide (H2O2) production

B1: MKRMVSWSFHKLKTMKHLLLLLLCVFLVKSQGVNDNEEGFFSARGHRPLDKKREEAPSLRPAPPPISGGGYRARPAKAAATQKKVERKAPDAGGCLHADPDLGVLC (protein)
chain: MKRMVSWSFHKLKTMKHLLLLLLCVFLVKSQGVNDNEEGFFSARGHRPLDKKREEAPSLRPAPPPISGGGRARPAKAAATQKKVERKAPDAGGCLHADPDLGVLCMKRMVSWSFHKLKTMKHLLLLLLCVFLVKSQGVNDNEEGFFSARGHRPLDKKREEAPSLRPAPPPISGGGYRARPAKAAATQKKVERKAPDAGGCLHADPDLGVLC
modifications: GST fusion; fragment Fg1
notes: fragment of Bß chain of human fibrinogen having 106 amino acids; recombinant GST-fused peptide expressed in E. coli
pos: [1]; P. acnes 6919, set I, bacteria first pretreated | [1]; P. acnes 6919, set II, cells first pretreated | [1]; P. acnes PIE, set I, bacteria first pretreated | [1]; P. acnes PIE, set II, cells first pretreated | [1]; P. acnes RON, set I, bacteria first pretreated | [1]; P. acnes RON, set II, cells first pretreated | [2]; P. acnes 6919, set I | [2]; P. acnes PIE, set I | [2]; P. acnes RON, set I
